For the data set, the target named is Neuropeptide Y (NPY) (UniProt P01303 29-64). Kind of data set: electrochemical impedance spectroscopy.

B1: NPY aptamer (80-base ssDNA) (ssDNA)
DNA: AGCAGCACAGAGGTCAGATGCAAACCACAGCCTGAGTGGTTAGCGTATGTCATTTACGGACCTATGCGTGCTACCGTGAA
modifications: 5' disulfide C6 (reduced to thiol), immobilized on Au
On to B1, for which the binding result is recorded as “binds”.

The values are drawn from PMC11034791.
